These results are taken from patent US20050002904A1 (published 2005).

The target of assay [1] is T1, p120catenin (human, UniProt O60716 1-968, limits assumed).
T1 sequence (looked up): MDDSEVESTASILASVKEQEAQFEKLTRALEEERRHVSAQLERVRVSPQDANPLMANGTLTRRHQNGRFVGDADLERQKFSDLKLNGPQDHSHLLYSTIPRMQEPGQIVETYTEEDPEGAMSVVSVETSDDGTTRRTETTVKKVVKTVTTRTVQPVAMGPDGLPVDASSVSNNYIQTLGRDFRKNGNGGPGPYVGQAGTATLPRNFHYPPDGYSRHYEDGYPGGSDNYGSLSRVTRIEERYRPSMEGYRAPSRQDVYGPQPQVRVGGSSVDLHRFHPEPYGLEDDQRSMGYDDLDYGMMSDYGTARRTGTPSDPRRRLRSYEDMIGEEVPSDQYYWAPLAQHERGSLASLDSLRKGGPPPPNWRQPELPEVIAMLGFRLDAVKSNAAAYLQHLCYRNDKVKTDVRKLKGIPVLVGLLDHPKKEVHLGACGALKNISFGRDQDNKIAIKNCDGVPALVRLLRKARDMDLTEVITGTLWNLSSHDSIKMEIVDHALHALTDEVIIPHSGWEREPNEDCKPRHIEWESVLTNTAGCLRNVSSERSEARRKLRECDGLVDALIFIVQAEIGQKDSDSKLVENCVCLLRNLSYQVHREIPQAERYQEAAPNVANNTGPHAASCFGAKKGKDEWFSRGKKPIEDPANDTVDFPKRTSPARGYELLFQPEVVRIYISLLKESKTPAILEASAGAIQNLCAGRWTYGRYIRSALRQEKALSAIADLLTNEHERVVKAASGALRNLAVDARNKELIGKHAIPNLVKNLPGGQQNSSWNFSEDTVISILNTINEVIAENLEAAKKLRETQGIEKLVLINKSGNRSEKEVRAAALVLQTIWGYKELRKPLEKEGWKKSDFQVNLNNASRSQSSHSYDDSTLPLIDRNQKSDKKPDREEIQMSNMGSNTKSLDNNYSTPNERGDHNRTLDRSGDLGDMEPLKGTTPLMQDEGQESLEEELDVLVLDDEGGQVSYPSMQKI
The assay is described as follows: cell-based or functional assay.

For the next assay, the target named is T2, γ-catenin (plakoglobin) (human, UniProt P14923 1-745).
T2 sequence (looked up): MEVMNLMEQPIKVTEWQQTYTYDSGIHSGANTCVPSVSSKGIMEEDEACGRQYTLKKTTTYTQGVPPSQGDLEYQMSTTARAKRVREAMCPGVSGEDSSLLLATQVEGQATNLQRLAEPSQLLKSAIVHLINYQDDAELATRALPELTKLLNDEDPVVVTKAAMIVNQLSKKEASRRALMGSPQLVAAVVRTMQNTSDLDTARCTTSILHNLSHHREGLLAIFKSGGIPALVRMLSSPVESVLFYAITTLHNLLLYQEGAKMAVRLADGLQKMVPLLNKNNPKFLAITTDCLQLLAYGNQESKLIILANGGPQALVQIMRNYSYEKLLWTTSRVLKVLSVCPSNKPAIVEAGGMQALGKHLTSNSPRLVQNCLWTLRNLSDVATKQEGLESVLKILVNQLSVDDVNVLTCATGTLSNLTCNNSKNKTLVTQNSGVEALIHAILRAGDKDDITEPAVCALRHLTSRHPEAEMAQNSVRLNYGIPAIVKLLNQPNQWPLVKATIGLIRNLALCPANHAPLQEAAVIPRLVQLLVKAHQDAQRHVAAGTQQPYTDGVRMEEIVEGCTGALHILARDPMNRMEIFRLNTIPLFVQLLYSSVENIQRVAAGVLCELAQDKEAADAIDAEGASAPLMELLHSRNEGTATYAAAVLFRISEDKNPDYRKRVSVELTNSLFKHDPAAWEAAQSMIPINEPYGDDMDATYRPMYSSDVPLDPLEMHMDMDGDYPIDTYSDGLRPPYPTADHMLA
The assay is described as follows: co-immunoprecipitation from HUVECs infected with wild-type PAP2b, western blot.

A further assay concerns the target T3, VE-cadherin (human, UniProt P33151 48-784).
T3 sequence (looked up): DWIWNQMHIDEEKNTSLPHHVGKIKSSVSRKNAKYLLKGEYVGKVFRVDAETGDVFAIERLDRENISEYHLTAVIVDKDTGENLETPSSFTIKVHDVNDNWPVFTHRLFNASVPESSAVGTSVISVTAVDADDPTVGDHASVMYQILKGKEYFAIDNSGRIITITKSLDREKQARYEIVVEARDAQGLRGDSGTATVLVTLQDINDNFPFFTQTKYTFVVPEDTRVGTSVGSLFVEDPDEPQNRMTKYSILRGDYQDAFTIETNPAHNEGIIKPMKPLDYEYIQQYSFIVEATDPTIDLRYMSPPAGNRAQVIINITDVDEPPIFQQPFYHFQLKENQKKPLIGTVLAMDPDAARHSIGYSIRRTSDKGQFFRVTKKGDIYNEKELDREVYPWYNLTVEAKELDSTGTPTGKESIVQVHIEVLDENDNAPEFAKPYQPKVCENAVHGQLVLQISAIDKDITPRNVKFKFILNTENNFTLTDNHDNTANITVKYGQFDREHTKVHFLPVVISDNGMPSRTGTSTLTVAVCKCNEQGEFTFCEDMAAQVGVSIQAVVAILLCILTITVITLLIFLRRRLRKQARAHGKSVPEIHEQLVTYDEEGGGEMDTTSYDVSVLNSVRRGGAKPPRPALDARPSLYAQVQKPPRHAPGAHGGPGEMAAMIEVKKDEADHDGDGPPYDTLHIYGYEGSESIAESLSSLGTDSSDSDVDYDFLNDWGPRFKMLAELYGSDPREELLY
Described as above.

The target in another assay is T4, β-catenin (human, UniProt P35222 2-781).
T4 sequence (looked up): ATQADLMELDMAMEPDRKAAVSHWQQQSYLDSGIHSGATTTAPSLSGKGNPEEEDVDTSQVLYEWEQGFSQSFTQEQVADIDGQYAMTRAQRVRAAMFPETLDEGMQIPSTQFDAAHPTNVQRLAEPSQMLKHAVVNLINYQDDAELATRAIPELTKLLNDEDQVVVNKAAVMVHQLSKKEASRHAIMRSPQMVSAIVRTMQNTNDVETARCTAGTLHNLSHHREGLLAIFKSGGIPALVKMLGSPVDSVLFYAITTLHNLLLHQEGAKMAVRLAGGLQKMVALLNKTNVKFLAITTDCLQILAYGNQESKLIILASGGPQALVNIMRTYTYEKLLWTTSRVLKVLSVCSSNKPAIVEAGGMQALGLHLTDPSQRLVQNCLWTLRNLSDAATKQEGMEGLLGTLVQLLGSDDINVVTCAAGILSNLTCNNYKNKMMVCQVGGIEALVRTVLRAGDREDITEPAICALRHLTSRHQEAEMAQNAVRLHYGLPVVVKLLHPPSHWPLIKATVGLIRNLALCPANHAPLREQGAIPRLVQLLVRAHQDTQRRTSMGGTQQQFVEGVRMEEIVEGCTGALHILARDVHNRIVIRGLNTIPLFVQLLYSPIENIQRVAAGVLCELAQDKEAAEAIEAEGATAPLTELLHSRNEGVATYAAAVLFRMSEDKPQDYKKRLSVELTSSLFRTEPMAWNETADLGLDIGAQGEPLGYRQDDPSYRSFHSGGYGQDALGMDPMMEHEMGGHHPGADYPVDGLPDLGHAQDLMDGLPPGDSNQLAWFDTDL
Described as above.

The next assay deals with CD36 (human, UniProt P16671 2-472). The assay is described as follows: co-immunoprecipitation from HUVECs, western blot of identical blots.
Sequence of CD36 (P16671 2-472 limits assumed): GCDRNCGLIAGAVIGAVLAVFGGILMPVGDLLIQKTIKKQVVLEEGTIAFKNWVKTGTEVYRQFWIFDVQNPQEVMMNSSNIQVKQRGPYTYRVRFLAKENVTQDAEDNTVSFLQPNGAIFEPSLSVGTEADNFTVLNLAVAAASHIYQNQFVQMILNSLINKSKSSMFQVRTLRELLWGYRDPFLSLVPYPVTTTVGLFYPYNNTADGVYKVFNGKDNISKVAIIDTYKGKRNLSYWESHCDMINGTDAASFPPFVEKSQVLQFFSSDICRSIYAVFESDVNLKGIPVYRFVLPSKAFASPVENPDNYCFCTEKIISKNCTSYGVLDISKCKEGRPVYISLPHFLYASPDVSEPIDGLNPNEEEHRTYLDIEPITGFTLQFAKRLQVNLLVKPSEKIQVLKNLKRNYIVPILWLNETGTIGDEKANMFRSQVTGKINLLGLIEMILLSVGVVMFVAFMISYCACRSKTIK
Another assay has as its target Tie-2 (human, UniProt Q02763 23-1124). Described as above.
The target of assay [2] is VEGF receptor-2 (VEGFR-2) (human, UniProt P35968 20-1356). The assay is described as above.
Sequence of VEGF receptor-2 (VEGFR-2) (P35968 20-1356 limits assumed): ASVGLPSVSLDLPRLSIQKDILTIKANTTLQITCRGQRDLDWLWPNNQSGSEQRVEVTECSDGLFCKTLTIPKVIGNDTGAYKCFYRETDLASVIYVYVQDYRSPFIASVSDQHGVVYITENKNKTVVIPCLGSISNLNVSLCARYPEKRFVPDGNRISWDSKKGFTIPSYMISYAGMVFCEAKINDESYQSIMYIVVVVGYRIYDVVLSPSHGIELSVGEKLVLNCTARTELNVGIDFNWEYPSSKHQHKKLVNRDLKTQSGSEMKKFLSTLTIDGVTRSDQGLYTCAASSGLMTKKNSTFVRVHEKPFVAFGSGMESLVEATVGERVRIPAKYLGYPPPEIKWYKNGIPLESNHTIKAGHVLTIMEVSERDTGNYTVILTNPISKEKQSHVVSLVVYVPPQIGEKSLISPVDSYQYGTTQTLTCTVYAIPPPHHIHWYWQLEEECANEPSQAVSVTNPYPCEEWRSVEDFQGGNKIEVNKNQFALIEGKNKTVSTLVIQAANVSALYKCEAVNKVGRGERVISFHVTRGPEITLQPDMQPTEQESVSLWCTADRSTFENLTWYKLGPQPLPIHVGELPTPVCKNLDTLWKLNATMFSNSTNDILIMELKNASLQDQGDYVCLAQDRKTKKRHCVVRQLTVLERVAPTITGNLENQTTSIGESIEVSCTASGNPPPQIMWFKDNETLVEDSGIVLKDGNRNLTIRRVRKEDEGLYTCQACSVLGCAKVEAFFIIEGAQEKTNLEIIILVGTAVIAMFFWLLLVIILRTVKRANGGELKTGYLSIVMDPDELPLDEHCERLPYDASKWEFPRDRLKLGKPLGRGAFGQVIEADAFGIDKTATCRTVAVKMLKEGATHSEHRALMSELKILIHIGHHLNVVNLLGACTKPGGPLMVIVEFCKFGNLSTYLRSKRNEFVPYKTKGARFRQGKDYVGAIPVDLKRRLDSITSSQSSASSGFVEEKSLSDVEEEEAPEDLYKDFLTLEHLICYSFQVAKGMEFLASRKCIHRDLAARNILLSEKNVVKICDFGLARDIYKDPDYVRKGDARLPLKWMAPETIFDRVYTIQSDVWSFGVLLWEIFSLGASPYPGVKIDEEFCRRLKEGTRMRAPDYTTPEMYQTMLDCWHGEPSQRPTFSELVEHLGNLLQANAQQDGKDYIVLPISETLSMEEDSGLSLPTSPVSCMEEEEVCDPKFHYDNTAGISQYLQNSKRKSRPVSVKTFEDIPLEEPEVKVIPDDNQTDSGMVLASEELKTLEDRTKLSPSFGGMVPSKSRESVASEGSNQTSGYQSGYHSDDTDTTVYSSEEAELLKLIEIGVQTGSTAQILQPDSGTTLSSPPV
A further assay addresses PECAM-1 (human, UniProt P16284 28-738). The assay is described as above.
Assay [3] deals with T1, p120catenin. The experiment in a line: anti-HA co-immunoprecipitation from infected endothelial cells, anti-p120 catenin blot.
Description: Endothelial cells were solubilized in RIPA buffer, and immunoprecipitated using indicated antibodies (5 μg/1.5 mg protein). […] All blots shown are representative of those obtained in at least three separate experiments.
Cell extracts were immunoprecipitated with anti-HA (lanes 1, 2, 4, 5 and 6) or anti-p120 catenin (lane 3) monoclonal antibodies (mAb) and subjected to western immunoblot analysis with anti-p120 catenin (FIG. 17A). To determine the level of expression, the bottom portion of the blot was analyzed by immunoblotting with anti-HA mAbs (FIG. 17B).
A further assay concerns the target soluble αvβ5 integrin (UniProt P06756 31-992; P18084 24-719). The assay is described as follows: solid-phase ligand binding ELISA, integrin immobilized.
For another assay, the target named is soluble α2β1 integrin (UniProt P17301 30-1132; P05556 21-728). The assay is described as above.
The target of assay [4] is T5, αvβ3 integrin of endothelial cells (human, UniProt P06756 31-1048; P05106 27-788).
T5 construct: whole, on cells; On cells in the adhesion assays
The experiment in a line: GST pull-down from 35S-labeled endothelial cell lysate, re-immunoprecipitation with LM609.
Excerpt: (§1) Lysates were pre-adsorbed twice with GST-Sepharose beads to remove proteins that interact with GST-Sepharose beads non-specifically. […] The beads were then extensively washed. […] The samples were equally divided into three tubes and diluted with cold immunoprecipitation dilution buffer to adjust the concentration of SDS to <0.1%. The samples were then immediately subjected to immunoprecipitation with indicated antibodies (FIG. 10H).

For assay [5], the target named is T6, α5β1 integrin of endothelial cells (human, UniProt P08648 42-1049; P05556 21-798).
T6 construct: whole, on cells; On cells in the adhesion assays
The assay is described as follows: GST pull-down from 35S-labeled endothelial cell lysate, re-immunoprecipitation with P1D6.
Excerpt: as §1

Numbering of substitutions follows the chain as printed. Where no end group is shown, it is not given here.

Sequence of soluble αvβ5 integrin (P06756 31-992, chain 1 of 2): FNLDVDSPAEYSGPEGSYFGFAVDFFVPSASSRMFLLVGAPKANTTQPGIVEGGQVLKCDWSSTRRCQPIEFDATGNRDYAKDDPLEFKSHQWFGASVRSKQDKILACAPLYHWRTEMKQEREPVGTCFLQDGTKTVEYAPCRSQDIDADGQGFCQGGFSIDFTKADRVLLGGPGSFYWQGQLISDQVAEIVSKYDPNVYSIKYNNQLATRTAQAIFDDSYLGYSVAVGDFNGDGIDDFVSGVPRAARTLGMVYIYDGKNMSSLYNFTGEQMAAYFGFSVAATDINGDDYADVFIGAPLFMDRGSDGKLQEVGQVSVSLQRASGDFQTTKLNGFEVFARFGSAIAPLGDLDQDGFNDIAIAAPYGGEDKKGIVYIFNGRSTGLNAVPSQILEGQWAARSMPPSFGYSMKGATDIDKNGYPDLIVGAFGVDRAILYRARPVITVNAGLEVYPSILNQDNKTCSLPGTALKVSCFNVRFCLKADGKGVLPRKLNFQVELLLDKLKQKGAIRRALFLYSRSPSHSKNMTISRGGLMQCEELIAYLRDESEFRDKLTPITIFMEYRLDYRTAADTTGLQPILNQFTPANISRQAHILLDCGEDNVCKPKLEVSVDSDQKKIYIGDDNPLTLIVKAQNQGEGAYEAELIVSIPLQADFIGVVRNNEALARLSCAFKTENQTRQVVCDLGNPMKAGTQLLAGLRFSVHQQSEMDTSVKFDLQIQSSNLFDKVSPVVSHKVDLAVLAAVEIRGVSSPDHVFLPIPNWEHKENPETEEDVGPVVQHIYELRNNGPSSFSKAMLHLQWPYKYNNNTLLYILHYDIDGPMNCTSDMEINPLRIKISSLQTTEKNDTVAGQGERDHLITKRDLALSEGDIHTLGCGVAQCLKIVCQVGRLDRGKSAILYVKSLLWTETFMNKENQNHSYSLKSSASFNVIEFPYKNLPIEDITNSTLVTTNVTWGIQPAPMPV
Sequence of soluble αvβ5 integrin (P18084 24-719, chain 2 of 2): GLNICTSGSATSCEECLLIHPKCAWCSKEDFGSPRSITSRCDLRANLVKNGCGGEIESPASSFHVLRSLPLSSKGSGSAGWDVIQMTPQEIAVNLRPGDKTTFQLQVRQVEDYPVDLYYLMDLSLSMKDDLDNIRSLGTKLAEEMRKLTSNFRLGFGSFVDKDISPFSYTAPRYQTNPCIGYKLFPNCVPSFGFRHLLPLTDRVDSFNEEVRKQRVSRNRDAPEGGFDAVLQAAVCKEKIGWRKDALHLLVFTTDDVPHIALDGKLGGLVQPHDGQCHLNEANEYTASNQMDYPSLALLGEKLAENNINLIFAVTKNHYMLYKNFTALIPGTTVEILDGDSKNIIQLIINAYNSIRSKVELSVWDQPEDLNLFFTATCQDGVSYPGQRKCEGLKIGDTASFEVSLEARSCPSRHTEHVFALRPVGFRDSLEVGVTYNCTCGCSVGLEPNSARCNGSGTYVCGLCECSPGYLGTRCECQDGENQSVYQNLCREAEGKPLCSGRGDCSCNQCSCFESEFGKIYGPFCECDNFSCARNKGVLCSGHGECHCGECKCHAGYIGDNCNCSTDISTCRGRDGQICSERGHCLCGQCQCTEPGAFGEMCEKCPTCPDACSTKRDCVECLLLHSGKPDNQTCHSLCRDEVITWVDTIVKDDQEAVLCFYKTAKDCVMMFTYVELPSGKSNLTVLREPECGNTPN
Sequence of Tie-2 (Q02763 23-1124 limits assumed): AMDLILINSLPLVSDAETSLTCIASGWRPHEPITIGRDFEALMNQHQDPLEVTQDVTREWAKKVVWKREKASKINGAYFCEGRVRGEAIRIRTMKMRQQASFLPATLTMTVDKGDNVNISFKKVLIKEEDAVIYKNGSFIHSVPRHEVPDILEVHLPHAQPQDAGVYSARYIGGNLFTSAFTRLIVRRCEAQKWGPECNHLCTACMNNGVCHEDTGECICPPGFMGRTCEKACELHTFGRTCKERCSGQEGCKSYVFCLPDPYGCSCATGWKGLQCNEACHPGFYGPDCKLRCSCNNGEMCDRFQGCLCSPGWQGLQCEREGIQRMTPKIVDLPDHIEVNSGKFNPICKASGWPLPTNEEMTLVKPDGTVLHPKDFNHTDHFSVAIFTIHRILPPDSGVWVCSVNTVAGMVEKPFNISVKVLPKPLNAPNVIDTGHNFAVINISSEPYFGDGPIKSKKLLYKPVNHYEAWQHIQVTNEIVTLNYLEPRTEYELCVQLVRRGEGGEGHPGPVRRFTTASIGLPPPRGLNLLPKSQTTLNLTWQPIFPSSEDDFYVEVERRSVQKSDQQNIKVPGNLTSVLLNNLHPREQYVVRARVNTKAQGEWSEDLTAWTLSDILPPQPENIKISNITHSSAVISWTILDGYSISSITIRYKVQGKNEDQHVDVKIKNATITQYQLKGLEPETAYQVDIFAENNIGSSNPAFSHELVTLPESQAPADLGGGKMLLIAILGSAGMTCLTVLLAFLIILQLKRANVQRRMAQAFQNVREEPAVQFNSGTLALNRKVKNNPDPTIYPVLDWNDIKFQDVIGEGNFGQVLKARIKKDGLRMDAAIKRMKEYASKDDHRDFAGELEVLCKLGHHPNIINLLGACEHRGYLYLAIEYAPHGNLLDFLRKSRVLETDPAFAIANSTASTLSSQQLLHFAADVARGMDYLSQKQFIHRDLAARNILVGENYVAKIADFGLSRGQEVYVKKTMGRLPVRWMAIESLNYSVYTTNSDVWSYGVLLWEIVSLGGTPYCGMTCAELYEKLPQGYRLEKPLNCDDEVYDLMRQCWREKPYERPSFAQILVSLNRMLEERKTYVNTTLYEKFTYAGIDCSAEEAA
Description for soluble α2β1 integrin: (§2) Briefly, soluble α2β1, α5β1, αvβv3 and αvβ5 integrins (1 μg/ml in a solution containing 20 mM Tris pH 7.4, 150 mM NaCl, 1 mM CaCl₂, 1 mM MgCl₂ and 1 mM MnCl₂) were immobilized onto 96-well microtiter plates at 4° C. Wells were washed and blocked with 0.5% BSA. […] Plates were then washed again and the ABTS substrate (Bio-Rad) was added. All washing steps were carried out using PBS. Absorbances were read at 405 nm, and non-specific binding values were adjusted against BSA.
Description for soluble αvβ5 integrin: as §2

B1: wild-type VCIP/PAP2b, HA-tagged, expressed from pLNCX2-VCIP-RGD (other)
chain: YPYDVPDYAYPYDVPDYAYPYDVPDYAMQNYKYDKAIVPESKNGGSPALNNNPRRSGSKRVLLICLDLFCLFMAGLPFLIIETSTIKPYHRGFYCNDESIKYPLKTGETINDAVLCAVGIVIAILAIITGEFYRIYYLKKSRSTIQNPYVAALYKQVGCFLFGCAISQSFTDIAKVSIGRLRPHFLSVCNPDFSQINCSEGYIQNYRCRGDDSKVQEARKSFFSGHASFSMYTMLYLVLYLQARFTWRGARLLRPLLQFTLIMMAFYTGLSRVSDHKHHPSDVLAGFAQGALVACCIVFFVSDLFKTKTTLSLPAPAIRKEILSPVDIIDRNNHHNMM
notes: Expressed in HEK293, SW480 and HUVEC cells; also called VCIP-RGD (WT); pLNCX2-PAP2b-RGD
B1: the “LEF-1 luciferase (TOPFLASH) activity in SW480 cells, fold reduction, construct B” value in the assay with p120catenin [1] is about 3.2 fold. Moreover, the binding result (with γ-catenin (plakoglobin); with VE-cadherin; with β-catenin; in the assay with CD36; in the assay with Tie-2; in assay [2]) was “no binding” each time. Further, the binding result in the assay with PECAM-1 is reported as “no binding”.

B2: mutant VCIP/PAP2b-RGE, HA-tagged, expressed from pLNCX2-VCIP-RGE (other)
chain: B1 chain with D211E
B2: in the assay with p120catenin [1], the “LEF-1 luciferase (TOPFLASH) activity in SW480 cells, fold reduction, construct C” value was about 4.2 fold.

B3: PAP2b/VCIP retroviral construct E, lacking the entire C-terminal cytoplasmic segment (other, not shown: small tags and cut ends)
chain: MQNYKYDKAIVPESKNGGSPALNNNPRRSGSKRVLLICLDLFCLFMAGLPFLIIETSTIKPYHRGFYCNDESIKYPLKTGETINDAVLCAVGIVIAILAIITGEFYRIYYLKKSRSTIQNPYVAALYKQVGCFLFGCAISQSFTDIAKVSIGRLRPHFLSVCNPDFSQINCSEGYIQNYRCRGDDSKVQEARKSFFSGHASFSMYTMLYLVLYLQARFTWRGARLLRPLLQFTLIMMAFYTGLSRVSDHKHHPSDVLAGFAQGALVACCIVFFVSDLFKTKTT
notes: residues 1-283 follow from that; Expressed in endothelial cells, lysate used; also called Δ-C-Cyto-284-311; VCIP-Δ-C-cyto
Regarding B3, the binding result in the assay with p120catenin [3] is reported as “no binding”.

B4: GST-VCIP-RGD fusion protein (wild-type glutathione S-transferase-VCIP-RGD) (other)
chain: DIAKVSIGRLRPHFLSVCNPDFSQINCSEGYIQNYRCRGDDSKVQEARKS
modifications: cysteine pairing not given here; also: recombinant GST fusion
notes: also called GST-RGD-VCIP; recombinant VCIP-RGD; not shown: glutathione S-transferase (GST) encoded by the pGstag vector
As for B4, the binding result is given as “no binding (tested: 50-350 ng per well)” in the assay with soluble αvβ5 integrin, “no binding (tested: 50-350 ng per well)” with soluble α2β1 integrin, “binds” in assay [4] and “binds” in assay [5].
